From patent publication US20040253247A1

T1: rabbit albumin (rabbit), P49065
T1 chain: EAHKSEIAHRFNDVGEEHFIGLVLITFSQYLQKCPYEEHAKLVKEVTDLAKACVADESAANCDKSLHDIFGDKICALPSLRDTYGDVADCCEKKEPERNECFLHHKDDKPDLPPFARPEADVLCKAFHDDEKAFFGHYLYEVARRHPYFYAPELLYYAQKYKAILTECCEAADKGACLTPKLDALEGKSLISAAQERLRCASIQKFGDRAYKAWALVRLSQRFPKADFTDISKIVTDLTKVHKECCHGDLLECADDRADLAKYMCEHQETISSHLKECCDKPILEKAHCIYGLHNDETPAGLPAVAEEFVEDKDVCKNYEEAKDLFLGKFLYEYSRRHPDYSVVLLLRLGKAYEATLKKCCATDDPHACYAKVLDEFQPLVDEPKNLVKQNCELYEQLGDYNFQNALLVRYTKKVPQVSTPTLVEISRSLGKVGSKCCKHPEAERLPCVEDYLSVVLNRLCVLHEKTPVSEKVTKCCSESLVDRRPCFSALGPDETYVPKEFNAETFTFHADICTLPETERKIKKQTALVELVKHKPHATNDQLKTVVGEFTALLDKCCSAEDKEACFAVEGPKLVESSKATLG

T2: rat albumin (rat), P02770
T2 chain: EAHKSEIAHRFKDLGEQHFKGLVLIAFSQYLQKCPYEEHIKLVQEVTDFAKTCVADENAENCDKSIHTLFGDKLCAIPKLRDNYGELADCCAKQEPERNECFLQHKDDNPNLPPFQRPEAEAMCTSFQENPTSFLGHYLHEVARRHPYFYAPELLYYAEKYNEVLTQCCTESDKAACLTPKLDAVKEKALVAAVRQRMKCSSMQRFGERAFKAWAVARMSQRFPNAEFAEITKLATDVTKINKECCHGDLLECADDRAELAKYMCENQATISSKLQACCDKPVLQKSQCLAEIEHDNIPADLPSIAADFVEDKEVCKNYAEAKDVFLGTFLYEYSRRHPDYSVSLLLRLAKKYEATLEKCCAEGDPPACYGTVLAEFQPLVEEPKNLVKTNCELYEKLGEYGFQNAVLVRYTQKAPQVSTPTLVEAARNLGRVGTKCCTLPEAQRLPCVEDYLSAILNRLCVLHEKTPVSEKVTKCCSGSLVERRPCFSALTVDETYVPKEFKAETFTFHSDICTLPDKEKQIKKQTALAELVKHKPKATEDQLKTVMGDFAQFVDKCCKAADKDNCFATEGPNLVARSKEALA


Tests used:
Experiment in all cases: SA08b binding assay: competition with biotinylated SA08b for immobilized albumin
[1] = target: T1, rabbit albumin (rabbit), P49065
[2] = target: T2, rat albumin (rat), P02770
[3] = target: mouse albumin (mouse), P07724
mouse albumin (mouse), P07724, sequence (P07724 25-608 limits assumed): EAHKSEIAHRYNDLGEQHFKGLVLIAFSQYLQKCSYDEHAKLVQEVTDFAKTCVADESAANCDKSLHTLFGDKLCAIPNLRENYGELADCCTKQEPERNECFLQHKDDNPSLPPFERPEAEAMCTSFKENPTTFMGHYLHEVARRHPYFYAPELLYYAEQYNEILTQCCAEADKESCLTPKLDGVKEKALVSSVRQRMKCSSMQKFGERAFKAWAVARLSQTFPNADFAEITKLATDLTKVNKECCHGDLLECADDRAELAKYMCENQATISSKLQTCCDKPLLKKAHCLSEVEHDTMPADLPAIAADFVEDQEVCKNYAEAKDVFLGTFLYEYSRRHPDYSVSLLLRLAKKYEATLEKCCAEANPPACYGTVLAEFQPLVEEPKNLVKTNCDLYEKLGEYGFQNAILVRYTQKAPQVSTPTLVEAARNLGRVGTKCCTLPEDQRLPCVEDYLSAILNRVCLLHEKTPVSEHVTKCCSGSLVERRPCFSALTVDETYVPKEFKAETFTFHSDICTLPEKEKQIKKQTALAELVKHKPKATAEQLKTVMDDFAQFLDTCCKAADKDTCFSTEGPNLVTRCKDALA

| IC50 [1] [nM] | IC50 [2] [nM] | IC50 [3] [nM] | Binder |
| --- | --- | --- | --- |
| 3200 | 2480 | 188 | RLMEDICLARWGCLWEDD (modifications not checked) [SA13] |
| 86 | 77 | 4 | RLMEDICLPRWGCLWEDD (modifications not checked) [SA10] |
